Test results as given in article PMC7141136, “Ohr and OhrR Are Critical for Organic Peroxide Resistance and Symbiosis in Azorhizobium caulinodans ORS571”.
Where a chain is given by its changes, count along the chain named.

Assays:
Conditions in all cases: protein: recombinant; tags: N-terminal 6xHis (pET-28a); chain copies: 2; label: none (GelRed stain)
OhrR C121S = target: T1, OhrR C121S (Azorhizobium caulinodans ORS571, UniProt A8IEZ4 1-144, C121S); experiment: EMSA; reducing; 50 mM Tris-HCl pH 8.3, 0.25 M KCl, 2.5 mM DTT, 5 mM MgCl2, 0.05 ug/mL poly(dI-dC), 2.5 mM EDTA, 1% glycerol; 20 nM DNA, 20 uL, 20 min, room temperature; 6% native PAGE in 0.5x TBE
T1 sequence: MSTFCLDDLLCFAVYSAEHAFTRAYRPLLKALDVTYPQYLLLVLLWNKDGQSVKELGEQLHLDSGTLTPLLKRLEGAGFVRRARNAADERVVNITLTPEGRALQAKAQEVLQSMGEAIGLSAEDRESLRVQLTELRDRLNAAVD

OhrR C11S = target: T2, OhrR C11S (Azorhizobium caulinodans ORS571, UniProt A8IEZ4 1-144, C11S); experiment: as above
T2 sequence: T1 sequence with C11S, S121C

OhrR C11S C121S = target: T3, OhrR C11S C121S (Azorhizobium caulinodans ORS571, UniProt A8IEZ4 1-144, C11S;C121S); experiment: EMSA; CuOOH; binding not affected; 50 mM Tris-HCl pH 8.3, 0.25 M KCl, 2.5 mM DTT, 5 mM MgCl2, 0.05 ug/mL poly(dI-dC), 2.5 mM EDTA, 1% glycerol; 20 nM DNA, 20 uL, 20 min, room temperature; 6% native PAGE in 0.5x TBE
T3 sequence: T1 sequence with C11S

Measured: binding result

B1: ohr promoter probe (181 bp) (dsDNA)
DNA 1: CAAAGGGTTAGTTTTCCGTTGCGGAAGGTTGGGTGATGTTGACGGTGGTCTGCAAAATAAGTTTGACACAATCAAATTGTGTGCTACTTAAATGGCCATGGAAGCGGCTTGGCCGTTTCTCATCGATTTCTCAAGGCACGAGGATCAAGCGATGTCCGTCGATGTGAAGTACACCACCAAG
DNA 2: CTTGGTGGTGTACTTCACATCGACGGACATCGCTTGATCCTCGTGCCTTGAGAAATCGATGAGAAACGGCCAAGCCGCTTCCATGGCCATTTAAGTAGCACACAATTTGATTGTGTCAAACTTATTTTGCAGACCACCGTCAACATCACCCAACCTTCCGCAACGGAAAACTAACCCTTTG
binds: all assays above
